Reference: patent publication US20250084169A1 (published 2025)
Where two headings read alike, the source gives them in different places.

T1: recombinant human Fc gamma RIIb/c (CD32b/c) (human, UniProt P31994 46-217)
T1 sequence (looked up): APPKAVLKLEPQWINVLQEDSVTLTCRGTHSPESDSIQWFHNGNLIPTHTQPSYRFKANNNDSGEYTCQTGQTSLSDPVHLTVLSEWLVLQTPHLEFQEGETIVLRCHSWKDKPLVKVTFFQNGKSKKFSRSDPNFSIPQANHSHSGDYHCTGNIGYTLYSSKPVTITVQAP

T2: recombinant human Fc gamma RIIa (CD32a) 131R (human, UniProt P12318 36-218)
T2 sequence (looked up): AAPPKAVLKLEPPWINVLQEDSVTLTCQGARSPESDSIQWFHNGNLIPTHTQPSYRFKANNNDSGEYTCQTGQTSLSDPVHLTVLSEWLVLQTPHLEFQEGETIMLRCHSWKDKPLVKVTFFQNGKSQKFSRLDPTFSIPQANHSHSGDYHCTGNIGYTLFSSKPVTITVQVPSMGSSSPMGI

T3: recombinant human Fc gamma RIIa (CD32a) 131H (human, UniProt P12318 36-218)
T3 sequence (looked up): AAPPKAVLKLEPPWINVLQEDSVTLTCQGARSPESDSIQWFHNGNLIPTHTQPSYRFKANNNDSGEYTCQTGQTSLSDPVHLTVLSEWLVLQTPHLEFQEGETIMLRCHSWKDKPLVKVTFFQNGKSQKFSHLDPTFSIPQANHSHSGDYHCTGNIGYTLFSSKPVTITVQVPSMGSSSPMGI

T4: CD20 Lipoparticles (Homo sapiens (Human), UniProt P11836 1-297)
T4 sequence: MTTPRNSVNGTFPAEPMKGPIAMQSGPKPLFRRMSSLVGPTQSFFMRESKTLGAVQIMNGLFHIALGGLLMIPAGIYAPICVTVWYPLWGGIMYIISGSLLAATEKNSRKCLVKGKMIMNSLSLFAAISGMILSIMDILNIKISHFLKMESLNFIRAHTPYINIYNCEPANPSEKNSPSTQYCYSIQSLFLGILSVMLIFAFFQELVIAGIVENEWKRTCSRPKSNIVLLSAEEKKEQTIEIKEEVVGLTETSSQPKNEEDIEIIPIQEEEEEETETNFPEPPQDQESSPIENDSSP

B1: Rituximab-S239D/I332E (antibody, human IgG1, kappa)
heavy: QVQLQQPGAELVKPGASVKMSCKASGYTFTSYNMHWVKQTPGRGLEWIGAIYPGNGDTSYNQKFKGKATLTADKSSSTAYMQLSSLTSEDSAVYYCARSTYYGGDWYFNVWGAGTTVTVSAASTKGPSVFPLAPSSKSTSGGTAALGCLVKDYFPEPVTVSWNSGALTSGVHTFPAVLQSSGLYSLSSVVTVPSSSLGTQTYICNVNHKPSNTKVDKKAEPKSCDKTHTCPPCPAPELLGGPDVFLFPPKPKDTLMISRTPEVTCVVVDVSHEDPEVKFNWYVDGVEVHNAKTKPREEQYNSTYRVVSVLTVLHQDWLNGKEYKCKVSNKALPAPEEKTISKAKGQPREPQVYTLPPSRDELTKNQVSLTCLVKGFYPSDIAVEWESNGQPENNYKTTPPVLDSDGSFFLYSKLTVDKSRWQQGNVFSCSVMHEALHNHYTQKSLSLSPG
light: QIVLSQSPAILSASPGEKVTMTCRASSSVSYIHWFQQKPGSSPKPWIYATSNLASGVPVRFSGSGSGTSYSLTISRVEAEDAATYYCQQWTSNPPTFGGGTKLEIKRTVAAPSVFIFPPSDEQLKSGTASVVCLLNNFYPREAKVQWKVDNALQSGNSQESVTEQDSKDSTYSLSSTLTLSKADYEKHKVYACEVTHQGLSSPVTKSFNRGEC
B2: Rc66SIDE-P4-Rc66SIDE (antibody, human IgG1, kappa)
light: QIVLSQSPAILSASPGEKVTMTCRASSSVSYIHWFQQKPGSSPKPWIYATSNLASGVPVRFSGSGSGTSYSLTISRVEAEDAATYYCQQWTSNPPTFGGGTKLEIKRTVAAPSVFIFPPSDEQLKSGTASVVCLLNNFYPREAKVQWKVDNALQSGNSQESVTEQDSKDSTYSLSSTLTLSKADYEKHKVYACEVTHQGLSSPVTKSFNRGEC
heavy: QVQLQQPGAELVKPGASVKMSCKASGYTFTSYNMHWVKQTPGRGLEWIGAIYPGNGDTSYNQKFKGKATLTADKSSSTAYMQLSSLTSEDSAVYYCARSTYYGGDWYFNVWGAGTTVTVSAASTKGPSVFPLAPSSKSTSGGTAALGCLVKDYFPEPVTVSWNSGALTSGVHTFPAVLQSSGLYSLSSVVTVPSSSLGTQTYICNVNHKPSNTKVDKKAEPKSCDKTHTCPPCPAPELLGGPDVFLFPPKPKDTLMISRTPEVTCVVVDVSHEDPEVKFNWYVDGVEVHNAKTKPREEQYNSTYRVVSVLTVLHQDWLNGKEYKCKVSNKALPAPEEKTISKAKGQPREPQVYVLPPSRDELTKNQVSLLCLVKGFYPSDIAVEWESNGQPENNYLTWPPVLDSDGSFFLYSKLTVDKSRWQQGNVFSCSVMHEALHNHYTQKSLSLSPGK
chain: CPPCPAPELLGGPDVFLFPPKPKDTLMISRTPEVTCVVVDVSHEDPEVKFNWYVDGVEVHNAKTKPREEQYNSTYRVVSVLTVLHQDWLNGKEYKCKVSNKALPAPEEKTISKAKGQPREPQVYVYPPSRDELTKNQVSLTCLVKGFYPSDIAVEWESNGQPENNYKTTPPVLDSDGSFALVSKLTVDKSRWQQGNVFSCSVMHEALHNHYTQKSLSLSPGK
B3: Rc66SIDE (antibody, human IgG1, kappa)
light: QIVLSQSPAILSASPGEKVTMTCRASSSVSYIHWFQQKPGSSPKPWIYATSNLASGVPVRFSGSGSGTSYSLTISRVEAEDAATYYCQQWTSNPPTFGGGTKLEIKRTVAAPSVFIFPPSDEQLKSGTASVVCLLNNFYPREAKVQWKVDNALQSGNSQESVTEQDSKDSTYSLSSTLTLSKADYEKHKVYACEVTHQGLSSPVTKSFNRGEC
heavy: QVQLQQPGAELVKPGASVKMSCKASGYTFTSYNMHWVKQTPGRGLEWIGAIYPGNGDTSYNQKFKGKATLTADKSSSTAYMQLSSLTSEDSAVYYCARSTYYGGDWYFNVWGAGTTVTVSAASTKGPSVFPLAPSSKSTSGGTAALGCLVKDYFPEPVTVSWNSGALTSGVHTFPAVLQSSGLYSLSSVVTVPSSSLGTQTYICNVNHKPSNTKVDKKAEPKSCDKTHTCPPCPAPELLGGPDVFLFPPKPKDTLMISRTPEVTCVVVDVSHEDPEVKFNWYVDGVEVHNAKTKPREEQYNSTYRVVSVLTVLHQDWLNGKEYKCKVSNKALPAPEEKTISKAKGQPREPQVYVLPPSRDELTKNQVSLLCLVKGFYPSDIAVEWESNGQPENNYLTWPPVLDSDGSFFLYSKLTVDKSRWQQGNVFSCSVMHEALHNHYTQKSLSLSPGK
chain: CPPCPAPELLGGPDVFLFPPKPKDTLMISRTPEVTCVVVDVSHEDPEVKFNWYVDGVEVHNAKTKPREEQYNSTYRVVSVLTVLHQDWLNGKEYKCKVSNKALPAPEEKTISKAKGQPREPQVYVYPPSRDELTKNQVSLTCLVKGFYPSDIAVEWESNGQPENNYKTTPPVLDSDGSFALVSKLTVDKSRWQQGNVFSCSVMHEALHNHYTQKSLSLSPGK
B4: Rc66SIDE-P16-Rc66SIDE (antibody, human IgG1, kappa)
light: QIVLSQSPAILSASPGEKVTMTCRASSSVSYIHWFQQKPGSSPKPWIYATSNLASGVPVRFSGSGSGTSYSLTISRVEAEDAATYYCQQWTSNPPTFGGGTKLEIKRTVAAPSVFIFPPSDEQLKSGTASVVCLLNNFYPREAKVQWKVDNALQSGNSQESVTEQDSKDSTYSLSSTLTLSKADYEKHKVYACEVTHQGLSSPVTKSFNRGEC
heavy: QVQLQQPGAELVKPGASVKMSCKASGYTFTSYNMHWVKQTPGRGLEWIGAIYPGNGDTSYNQKFKGKATLTADKSSSTAYMQLSSLTSEDSAVYYCARSTYYGGDWYFNVWGAGTTVTVSAASTKGPSVFPLAPSSKSTSGGTAALGCLVKDYFPEPVTVSWNSGALTSGVHTFPAVLQSSGLYSLSSVVTVPSSSLGTQTYICNVNHKPSNTKVDKKAEPKSCDKTHTCPPCPAPELLGGPDVFLFPPKPKDTLMISRTPEVTCVVVDVSHEDPEVKFNWYVDGVEVHNAKTKPREEQYNSTYRVVSVLTVLHQDWLNGKEYKCKVSNKALPAPEEKTISKAKGQPREPQVYVLPPSRDELTKNQVSLLCLVKGFYPSDIAVEWESNGQPENNYLTWPPVLDSDGSFFLYSKLTVDKSRWQQGNVFSCSVMHEALHNHYTQKSLSLSPGK
chain: CPPCPAPELLGGPDVFLFPPKPKDTLMISRTPEVTCVVVDVSHEDPEVKFNWYVDGVEVHNAKTKPREEQYNSTYRVVSVLTVLHQDWLNGKEYKCKVSNKALPAPEEKTISKAKGQPREPQVYVYPPSRDELTKNQVSLTCLVKGFYPSDIAVEWESNGQPENNYKTTPPVLDSDGSFALVSKLTVDKSRWQQGNVFSCSVMHEALHNHYTQKSLSLSPGK
B5: HB2174 (bispecific antibody, human IgG1, kappa)
heavy 1: QVQLVQSGGGVVQPGRSLRLSCAASGVSLPDYGVSWVRKAPGKGLEWVAVIWGSETTYYNSALKSRFTISRDNSKNTLYLQMSSLRAEDTAVYYCAKHYYYGGSFAMDYWGQGTLVTVSSASTKGPSVFPLAPSSKSTSGGTAALGCLVKDYFPEPVTVSWNSGALTSGVHTFPAVLQSSGLYSLESVVTVPSSSLGTQTYICNVNHKPSNTKVDKKVEPKSCTDWSPYADQSIKVRISLKSALGDKAYEWNDNEMYLFRSSVAYAMRQYFLKVKNQMILFGEEDVRVANLKPRISFNFFVTAPKNVSDIIPRTEVEKAIRMSRSRINDAFRLNDNSLEFLGIQPTLGPPNQPPVSTSTSPTRSMAPGAVHLPQPVSTRDKTHTCPPCPAPELLGGPSVFLFPPKPKDTLMISRTPEVTCVVVDVSHEDPEVKFNWYVDGVEVHNAKTKPREEQYNSTYRVVSVLTVLHQDWLNGKEYKCKVSNKALPAPIEKTISKAKGQPREPQVCTLPPSRDELTKNQVSLSCAVKGFYPSDIAVEWESNGQPENNYKTTPPVLDSDGSFFLVSKLTVDKSRWQQGNVFSCSVMHEALHNRFTQKSLSLSPG
heavy 2: not shown
light 1: DIQMTQSPSSLSASVGDRVTITCRASQDISKYLNWYQEKPGKAIKLLIYHTSRLHSGVPSRFSGSGSGTDFTLTISSLQPEDFATYYCQQGATLPYTFGPGTKLEIKRTVAAPSVFIFPPSDEQLKSGTASVKCLLNNFYPREAKVQWKVDNALQSGNSQESVTEQDSKDSTYSLSSTLTLSKADYEKHKVYACEVTHQGLSSPVTKSFNRGEC
light 2: QVQLQQPGAELVKPGASVKMSCKASGYTFTSYNMHWVKETPGRGLEWIGAIYPGNGDTSYNQKFKGKATLTADKSSSTAYMQLSSLTSEDSAVYYCARSTYYGGDWYFNVWGAGTLVTVSSASVAAPSVFIFPPSDEQLKSGTASVECLLNNFYPREAKVQWKVDNALQSGNSQESVTEQDSKDSTYSLSSTLTLSKADYEKHKVYACEVTHQGLSSPVTKSFNRGEC

Legend:
[1] = target: T5, recombinant human Fc gamma RIIIb (CD16b) (human, UniProt O75015 17-200)
[2] = target: T6, recombinant human Fc gamma RIIIa (CD16a) 158F (human, UniProt P08637 17-208)
[3] = target: T7, recombinant human Fc gamma RIIIa (CD16a) 158V (human, UniProt P08637 17-208)
[4] = target: T8, recombinant human Fc gamma RI (CD64) (human, UniProt P12314 16-288)
[5] = target: T1, recombinant human Fc gamma RIIb/c …
[6] = target: T2, recombinant human Fc gamma RIIa (CD32a) …
[7] = target: T5, recombinant human Fc gamma RIIIb (CD16b); remark: listed apart in the source
[8] = target: T6, recombinant human Fc gamma RIIIa …; remark: listed apart in the source
[9] = target: T8, recombinant human Fc gamma RI (CD64); remark: listed apart in the source
[10] = target: T1, recombinant human Fc gamma RIIb/c …; remark: listed apart in the source
[11] = target: T3, recombinant human Fc gamma RIIa (CD32a) …
[12] = target: T7, recombinant human Fc gamma RIIIa …; remark: listed apart in the source
[13] = target: T2, recombinant human Fc gamma RIIa (CD32a) …; remark: listed apart in the source
CD20 Lipoparticles = target: T4, CD20 Lipoparticles

T8 sequence (P12314 16-288 limits assumed): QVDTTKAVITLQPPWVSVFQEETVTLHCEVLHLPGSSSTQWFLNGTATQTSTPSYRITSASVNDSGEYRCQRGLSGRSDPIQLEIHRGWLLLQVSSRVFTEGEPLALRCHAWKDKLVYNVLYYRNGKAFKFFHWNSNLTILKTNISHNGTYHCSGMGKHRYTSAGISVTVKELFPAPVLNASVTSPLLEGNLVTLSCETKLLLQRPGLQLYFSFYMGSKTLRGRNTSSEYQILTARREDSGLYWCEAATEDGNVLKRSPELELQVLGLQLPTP
T7 sequence (P08637 17-208 F176V limits assumed): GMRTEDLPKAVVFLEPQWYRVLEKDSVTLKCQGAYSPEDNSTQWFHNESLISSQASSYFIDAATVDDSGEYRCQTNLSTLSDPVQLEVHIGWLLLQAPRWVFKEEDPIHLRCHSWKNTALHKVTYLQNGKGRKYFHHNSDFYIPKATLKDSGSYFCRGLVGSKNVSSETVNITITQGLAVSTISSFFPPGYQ
T5 sequence (O75015 17-200 limits assumed): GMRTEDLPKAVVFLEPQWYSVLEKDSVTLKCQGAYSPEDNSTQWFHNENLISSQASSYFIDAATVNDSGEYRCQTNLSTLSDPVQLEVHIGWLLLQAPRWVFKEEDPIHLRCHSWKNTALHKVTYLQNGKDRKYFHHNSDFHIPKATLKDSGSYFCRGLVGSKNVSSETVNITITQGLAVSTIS
T6 sequence (P08637 17-208 limits assumed): as the sequence (P08637 17-208 F176V limits assumed) above, with V160F counted along it

Binder	Kd [1] [nM]	Kd [2] [nM]	Kd [3] [nM]	Kd [4] [nM]	Kd [5] [nM]	Kd [6] [nM]	Kd [7] [nM]	Kd [8] [nM]	Kd [9] [nM]	Kd [10] [nM]	Kd [11] [nM]	Kd [12] [nM]	Kd [13] [nM]	Kd (CD20 Lipoparticles) [nM]
B1	66.8	17.6	4.33	0.0266	138	76.8								
B2							1.05	3.87	< 0.001	3.17	2.54	1.14	4.93	< 0.001
B3							163	76.8		253	255	46.2	202	21.4
B4							< 0.001	2.71	< 0.001	0.556	0.808	0.257	1.83	< 0.001
B5	8910	2310	497	0.118	4480	901								
